Values belong to the binder of their own block, whether it stands above or below them.
Tests used:
[1] = target: endophilin SH3 (SH3G2_HUMAN), Q99962; experiment: SPOT array
[2] = target: T1, amphyphisin SH3 (AMPH_HUMAN), P49418; experiment: SPOT array
T1 chain: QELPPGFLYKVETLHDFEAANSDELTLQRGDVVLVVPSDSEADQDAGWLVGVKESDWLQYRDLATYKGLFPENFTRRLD

normalised SPOT signal, Boehringer light units (BLU); mean over the file's lines of this peptide [1]: 412
normalised SPOT signal, Boehringer light units (BLU); mean over the file's lines of this peptide [2]: 1150
B1: Q9Y6J0 1992-2005 (peptide)
chain: KDPGPPRPHRPEAT

normalised SPOT signal, Boehringer light units (BLU); mean over the file's lines of this peptide [1]: 958
normalised SPOT signal, Boehringer light units (BLU); mean over the file's lines of this peptide [2]: 118
B2: P47895 16-29 (peptide)
chain: KPPALPRPIRNLEV

normalised SPOT signal, Boehringer light units (BLU); mean over the file's lines of this peptide [1]: 2730
normalised SPOT signal, Boehringer light units (BLU); mean over the file's lines of this peptide [2]: 6680
B3: Q9NWB4 151-164 (peptide)
chain: KITPPRRPHRSSSG

normalised SPOT signal, Boehringer light units (BLU); mean over the file's lines of this peptide [1]: 21200
normalised SPOT signal, Boehringer light units (BLU); mean over the file's lines of this peptide [2]: 64.8
B4: Q9UH43 133-147 (peptide)
chain: KGSKPVRPPAPGHG

normalised SPOT signal, Boehringer light units (BLU); mean over the file's lines of this peptide [1]: 200
normalised SPOT signal, Boehringer light units (BLU); mean over the file's lines of this peptide [2]: 149
B5: P56199 1137-1150 (peptide)
chain: KIGFFKRPLKKKME

normalised SPOT signal, Boehringer light units (BLU); mean over the file's lines of this peptide [1]: 20.1
normalised SPOT signal, Boehringer light units (BLU); mean over the file's lines of this peptide [2]: 258
B6: Q92508 1232-1245 (peptide)
chain: AMLSIPRPSKRFWM

normalised SPOT signal, Boehringer light units (BLU); mean over the file's lines of this peptide [1]: 25.2
normalised SPOT signal, Boehringer light units (BLU); mean over the file's lines of this peptide [2]: 33.1
B7: Q9HC49 341-354 (peptide)
chain: KGRVLKRPPNSVVT

normalised SPOT signal, Boehringer light units (BLU); mean over the file's lines of this peptide [1]: 492
normalised SPOT signal, Boehringer light units (BLU); mean over the file's lines of this peptide [2]: 1200
B8: Q13577 12-25 (peptide)
chain: KISWLSRPRRVSLS

normalised SPOT signal, Boehringer light units (BLU); mean over the file's lines of this peptide [1]: 1390
normalised SPOT signal, Boehringer light units (BLU); mean over the file's lines of this peptide [2]: 2170
B9: Q14775 472-485 (peptide)
chain: KLDTPLRPARQQPT

normalised SPOT signal, Boehringer light units (BLU); mean over the file's lines of this peptide [1]: 61.9
normalised SPOT signal, Boehringer light units (BLU); mean over the file's lines of this peptide [2]: 44.3
B10: Q16632 639-652 (peptide)
chain: KFWDLRRPYEPINS

normalised SPOT signal, Boehringer light units (BLU); mean over the file's lines of this peptide [1]: 276
normalised SPOT signal, Boehringer light units (BLU); mean over the file's lines of this peptide [2]: 56.3
B11: Q99651 220-234 (peptide)
chain: KEMVPAKPPKGLVG

normalised SPOT signal, Boehringer light units (BLU); mean over the file's lines of this peptide [1]: 43.5
normalised SPOT signal, Boehringer light units (BLU); mean over the file's lines of this peptide [2]: 20.4
B12: Q9C0A1 71-84 (peptide)
chain: KFLDPARPYKSTVS

normalised SPOT signal, Boehringer light units (BLU); mean over the file's lines of this peptide [1]: 228
normalised SPOT signal, Boehringer light units (BLU); mean over the file's lines of this peptide [2]: 21.8
B13: P23378 97-110 (peptide)
chain: ANIRLKRPLKMEDP

normalised SPOT signal, Boehringer light units (BLU); mean over the file's lines of this peptide [1]: 1.7
normalised SPOT signal, Boehringer light units (BLU); mean over the file's lines of this peptide [2]: 0
B14: Q9UIG2 1550-1563 (peptide)
chain: KLMKFSRPKKTRSG

normalised SPOT signal, Boehringer light units (BLU); mean over the file's lines of this peptide [1]: 106
normalised SPOT signal, Boehringer light units (BLU); mean over the file's lines of this peptide [2]: 2590
B15: O95391 130-143 (peptide)
chain: KKDSFERPRRVGAK

normalised SPOT signal, Boehringer light units (BLU); mean over the file's lines of this peptide [1]: 737
normalised SPOT signal, Boehringer light units (BLU); mean over the file's lines of this peptide [2]: 56
B16: O60382 1692-1706 (peptide)
chain: KPASPKKPPPGERS

normalised SPOT signal, Boehringer light units (BLU); mean over the file's lines of this peptide [1]: 146
normalised SPOT signal, Boehringer light units (BLU); mean over the file's lines of this peptide [2]: 485
B17: P49593 287-300 (peptide)
chain: KLMEPHRPERQDEK

normalised SPOT signal, Boehringer light units (BLU); mean over the file's lines of this peptide [1]: 10.4
normalised SPOT signal, Boehringer light units (BLU); mean over the file's lines of this peptide [2]: 24.6
B18: Q14289 12-25 (peptide)
chain: KLGTLRRPEGPAEP

normalised SPOT signal, Boehringer light units (BLU); mean over the file's lines of this peptide [1]: 22.4
normalised SPOT signal, Boehringer light units (BLU); mean over the file's lines of this peptide [2]: 45.6
B19: O75923 2014-2027 (peptide)
chain: KLEDPRRPDTSFLW

normalised SPOT signal, Boehringer light units (BLU); mean over the file's lines of this peptide [1]: 322
normalised SPOT signal, Boehringer light units (BLU); mean over the file's lines of this peptide [2]: 12.6
B20: P06681 588-601 (peptide)
chain: ANLALRRPQGSTSR

normalised SPOT signal, Boehringer light units (BLU); mean over the file's lines of this peptide [1]: 342
normalised SPOT signal, Boehringer light units (BLU); mean over the file's lines of this peptide [2]: 327
B21: P46977 431-444 (peptide)
chain: KNLDISRPDKKSKK

normalised SPOT signal, Boehringer light units (BLU); mean over the file's lines of this peptide [1]: 307
normalised SPOT signal, Boehringer light units (BLU); mean over the file's lines of this peptide [2]: 159
B22: Q9UHI5 412-425 (peptide)
chain: KKPDIPRPIKINLL

normalised SPOT signal, Boehringer light units (BLU); mean over the file's lines of this peptide [1]: 82.6
normalised SPOT signal, Boehringer light units (BLU); mean over the file's lines of this peptide [2]: 59.9
B23: O15021 1933-1947 (peptide)
chain: KGPGPQKPPTEADK

normalised SPOT signal, Boehringer light units (BLU); mean over the file's lines of this peptide [1]: 195
normalised SPOT signal, Boehringer light units (BLU); mean over the file's lines of this peptide [2]: 11.1
B24: Q15642 51-64 (peptide)
chain: KKYLPKRPAKDDPE

normalised SPOT signal, Boehringer light units (BLU); mean over the file's lines of this peptide [1]: 316
normalised SPOT signal, Boehringer light units (BLU); mean over the file's lines of this peptide [2]: 46.6
B25: O94820 221-234 (peptide)
chain: KLFRPRRPRSSSDA

normalised SPOT signal, Boehringer light units (BLU); mean over the file's lines of this peptide [1]: 198
normalised SPOT signal, Boehringer light units (BLU); mean over the file's lines of this peptide [2]: 476
B26: P00740 37-50 (peptide)
chain: ANKILNRPKRYNSG

normalised SPOT signal, Boehringer light units (BLU); mean over the file's lines of this peptide [1]: 63.9
normalised SPOT signal, Boehringer light units (BLU); mean over the file's lines of this peptide [2]: 39
B27: Q9UJU2 290-303 (peptide)
chain: KEQEPKRPHIKKPL

normalised SPOT signal, Boehringer light units (BLU); mean over the file's lines of this peptide [1]: 11900
normalised SPOT signal, Boehringer light units (BLU); mean over the file's lines of this peptide [2]: 150
B28: AAH28697 228-242 (peptide)
chain: KKPVPARPPPPTNF

normalised SPOT signal, Boehringer light units (BLU); mean over the file's lines of this peptide [1]: 779
normalised SPOT signal, Boehringer light units (BLU); mean over the file's lines of this peptide [2]: 43.2
B29: Q9UQ36 1183-1197 (peptide)
chain: KPASPKKPPPGERR

normalised SPOT signal, Boehringer light units (BLU); mean over the file's lines of this peptide [1]: 229
normalised SPOT signal, Boehringer light units (BLU); mean over the file's lines of this peptide [2]: 43.9
B30: Q9H7K4 46-60 (peptide)
chain: KDPGPPRPPAGATQ

normalised SPOT signal, Boehringer light units (BLU); mean over the file's lines of this peptide [1]: 34
normalised SPOT signal, Boehringer light units (BLU); mean over the file's lines of this peptide [2]: 26.8
B31: Q9BXK3 581-594 (peptide)
chain: KIVDPKRPLMPEES

normalised SPOT signal, Boehringer light units (BLU); mean over the file's lines of this peptide [1]: 132
normalised SPOT signal, Boehringer light units (BLU); mean over the file's lines of this peptide [2]: 39
B32: Q8WZ42 11374-11388 (peptide)
chain: KIIPPKKPPTKVVP

normalised SPOT signal, Boehringer light units (BLU); mean over the file's lines of this peptide [1]: 41.2
normalised SPOT signal, Boehringer light units (BLU); mean over the file's lines of this peptide [2]: 32.3
B33: Q15047 1069-1082 (peptide)
chain: KPEGLRRPPSKTSM

normalised SPOT signal, Boehringer light units (BLU); mean over the file's lines of this peptide [1]: 81
normalised SPOT signal, Boehringer light units (BLU); mean over the file's lines of this peptide [2]: 15.8
B34: Q00537 66-79 (peptide)
chain: KKPPLRRPHSVIGG

normalised SPOT signal, Boehringer light units (BLU); mean over the file's lines of this peptide [1]: 803
normalised SPOT signal, Boehringer light units (BLU); mean over the file's lines of this peptide [2]: 32.4
B35: Q9H8D2 66-79 (peptide)
chain: KLKSPKRPASPSSP

normalised SPOT signal, Boehringer light units (BLU); mean over the file's lines of this peptide [1]: 86.2
normalised SPOT signal, Boehringer light units (BLU); mean over the file's lines of this peptide [2]: 21.4
B36: Q15911 1537-1550 (peptide)
chain: KFLDPSRPYKSTVS

normalised SPOT signal, Boehringer light units (BLU); mean over the file's lines of this peptide [1]: 86.6
normalised SPOT signal, Boehringer light units (BLU); mean over the file's lines of this peptide [2]: 66.7
B37: Q92613 102-115 (peptide)
chain: KDVLFIRPRKYIHS

normalised SPOT signal, Boehringer light units (BLU); mean over the file's lines of this peptide [1]: 9990
normalised SPOT signal, Boehringer light units (BLU); mean over the file's lines of this peptide [2]: 1310
B38: Q9Y6N4 503-517 (peptide)
chain: KIPKPPKPPKPPRP

normalised SPOT signal, Boehringer light units (BLU); mean over the file's lines of this peptide [1]: 1840
normalised SPOT signal, Boehringer light units (BLU); mean over the file's lines of this peptide [2]: 201
B39: Q14687 646-660 (peptide)
chain: KPGSPYRPPVPRAP

normalised SPOT signal, Boehringer light units (BLU); mean over the file's lines of this peptide [1]: 167
normalised SPOT signal, Boehringer light units (BLU); mean over the file's lines of this peptide [2]: 36.3
B40: Q9NQ11 1067-1080 (peptide)
chain: KGAPFRRPLYTNVP

normalised SPOT signal, Boehringer light units (BLU); mean over the file's lines of this peptide [1]: 55.9
normalised SPOT signal, Boehringer light units (BLU); mean over the file's lines of this peptide [2]: 77.8
B41: O75937 248-261 (peptide)
chain: KNRTFLRPPKVKME

normalised SPOT signal, Boehringer light units (BLU); mean over the file's lines of this peptide [1]: 516
normalised SPOT signal, Boehringer light units (BLU); mean over the file's lines of this peptide [2]: 35.5
B42: O15043 393-406 (peptide)
chain: KGTIPKRPWLSATP

Source: PMC314469, “Protein Interaction Networks by Proteome Peptide Scanning” (PLoS Biology, 2004)
